These results are taken from paper PMC5538626, “Structural and functional analysis of the GABARAP interaction motif (GIM)” (EMBO Reports, 2017).

Numbering of substitutions follows the chain as printed. In names and notes the source's numbering stands.

For one experiment, the system named is GFP-LC3B. The experiment can be described thus: Co-immunoprecipitation of full-length PLEKHM1 LIR variants with GFP-LC3B. As to conditions: full-length PLEKHM1-Flag, Fig 4C.
The subject of a further experiment is endogenous LC3B. The experiment can be described thus: Co-immunoprecipitation of GFP-FUNDC1 with endogenous LC3B, HEK293 cells. Format: cell-based. As to conditions: HEK293, non-stimulated (DMSO); Fig 5C left. How it is done:
(§1) Blots were probed for the presence of endogenous GABARAP and LC3B proteins. • 3xFlag‐FIP200 WT, E703V, I705V, E703V/I705V and F702A/I705A were overexpressed in HEK293 cells and immunoprecipitated using anti‐Flag beads and subjected to SDS–PAGE and Western blotting. Blots were probed for the presence of endogenous GABARAP and LC3B proteins. • GFP‐FUNDC1 WT, E19V, L21V, E19V/L21V and Y18A/L21A were overexpressed in HEK293 cells and either treated with vehicle only (DMSO) or 20 μM CCCP for 2 h, lysed and GFP‐FUNDC1 immunoprecipitated using anti‐GFP beads (or anti‐RFP beads as control) and subjected to SDS–PAGE and Western blotting. Blots were probed for the presence of endogenous GABARAP and LC3B proteins.

Another experiment has as its system endogenous GABARAP. Kind of experiment: Co-immunoprecipitation of GFP-FUNDC1 with endogenous GABARAP, HEK293 cells. Format: cell-based. As to conditions: HEK293, non-stimulated (DMSO); Fig 5C left. The method, then:
as §1

B1: PLEKHM1‐WCIL (full length): full-length PLEKHM1-Flag, variant LIR WVNV/WCIL (protein)
chain: MLSVVENGLDPQAAIPVIKKKLVGSVKALQKQYVSLDTVVTSEDGDANTMCSALEAVFIHGLHAKHIRAEAGGKRKKSAHQKPLPQPVFWPLLKAVTHKHIISELEHLTFVNTDVGRCRAWLRLALNDGLMECYLKLLLQEQARLHEYYQPTALLRDAEEGEFLLSFLQGLTSLSFELSYKSAILNEWTLTPLALSGLCPLSELDPLSTSGAELQRKESLDSISHSSGSEDIEVHHSGHKIRRNQKLTASSLSLDTASSSQLSCSLNSDSCLLQENGSKSPDHCEEPMSCDSDLGTANAEDSDRSLQEVLLEFSKAQVNSVPTNGLSQETEIPTPQASLSLHGLNTSTYLHCEAPAEPLPAQAASGTQDGVHVQEPRPQAPSPLDLQQPVESTSGQQPSSTVSETAREVGQGNGLQKAQAHDGAGLKLVVSSPTSPKNKSWISEDDFYRPSREQPLESASDHPIASYRGTPGSRPGLHRHFSQEPRKNCSLGALDQACVPSPGRRQAQAAPSQGHKSFRVVHRRQMGLSNPFRGLMKLGTVERRGAMGIWKELFCELSPLEFRLYLSNEEHTCVENCSLLRCESVGPAHSDGRFELVFSGKKLALRASSQDEAEDWLDRVREALQKVRPQQEDEWCILQYPDQPEEPPEAPQGCLSPSDLLSEPAALQGTQFDWSSAQVPEPDAIKESLLYLYMDRTWMPYIFSLSLEALKCFRIRNNEKMLSDSHGVETIRDILPDTSLGGPSFFKIITAKAVLKLQAGNAEEAALWRDLVRKVLASYLETAEEAVTLGGSLDENCQEVLKFATRENGFLLQYLVAIPMEKGLDSQGCFCAGCSRQIGFSFVRPKLCAFSGLYYCDICHQDDASVIPARIIHNWDLTKRPICRQALKFLTQIRAQPLINLQMVNASLYEHVERMHLIGRRREQLKLLGDYLGLCRSGALKELSKRLNHRNYLLESPHRFSVADLQQIADGVYEGFLKALIEFASQHVYHCDLCTQRGFICQICQHHDIIFPFEFDTTVRCAECKTVFHQSCQAVVKKGCPRCARRRKYQEQNIFA
modifications: left off: Flag, end not stated, kept
Regarding B1, the “co-precipitation with GFP-LC3B” value in the experiment with GFP-LC3B is “increased co‐precipitation with GFP‐LC3B”; in the experiment with GFP-LC3B (listed as Plekhm1-WCIL), “increased interaction”.

B2: Plekhm1-mutLIR: full-length PLEKHM1-Flag, mutant LIR EDEWVNV/AAAAVNG (protein)
chain: B1 chain with E632A, D633A, E634A, W635A, C636V, I637N, L638G
modifications: left off: Flag, end not stated, kept
In the case of B2, the “co-precipitation with GFP-LC3B” value with GFP-LC3B is given as “decreased interaction”.

B3: E19V: GFP-FUNDC1 E19V (protein, UniProt Q8IVP5 1-155, looked up, variant E19V)
FUN14 domain-containing …: MATRNPPPQDYESDDDSYVVLDLTEYARRHQWWNRVFGHSSGPMVEKYSVATQIVMGGVTGWCAGFLFQKVGKLAATAVGGGFLLLQIASHSGYVQIDWKRVEKDVNKAKRQIKKRANKAAPEINNLIEEATEFIKQNIVISSGFVGGFLLGLAS
modifications: GFP tag
B3: the “interaction of FUNDC1 with endogenous LC3” value in the experiment on endogenous LC3B was “increased LC3 interaction”. For the same molecule, in the experiment on endogenous GABARAP, the “interaction of FUNDC1 with endogenous GABARAP” value is recorded as “moderately enhanced”.

B4: L21V: GFP-FUNDC1 L21V (protein, UniProt Q8IVP5 1-155, looked up, variant L21V)
FUN14 domain-containing …: B3 FUN14 domain-containing … with V19E, L21V
modifications: GFP tag
In the case of B4, the “interaction of FUNDC1 with endogenous LC3” value in the experiment with endogenous LC3B is given as “little effect”. In addition, the “interaction of FUNDC1 with endogenous GABARAP” value with endogenous GABARAP is recorded as “little effect”.
